Here are results for 13 substances from publication PMC9891502.

As a reminder, the EC50 is the midpoint of the concentration-response curve.

Assay [1] deals with full-length gB (Towne strain) expressed on HEK293T cells (UniProt P13201). Nature of the assay: flow cytometry on cells. Particulars: three-point, 10-fold mAb serial dilution starting at 0.1 μg/mL; parent: 94. (Flow cytometry measures light scatter and fluorescence of single cells or particles in a stream.)
For assay [2], the target named is CMV gB ectodomain protein. Description: ELISA. The following applies: parent: 171.7.

As for “TRL345 unmutated common ancestor (UCA) mAb H:A33N; H:Y52aN; L:S30G”, in assay [1], the other: AUC is 144 AUC.

Take “TRL345 unmutated common ancestor (UCA) mAb H:Y52aN”: the concentration giving a half-maximal response (EC50) in assay [2] amounted to 0.0851 µg/mL.

For the substance “TRL345 unmutated common ancestor (UCA) mAb H:A33N; L:S30G”, the other: AUC in assay [1] is 207 AUC.

For “TRL345 unmutated common ancestor (UCA) mAb H:Y52aN; L:S30G; L:N53D”, the EC50 in assay [2] was 0.0077 µg/mL.

Consider “TRL345 unmutated common ancestor (UCA) mAb H:Y52aN; L:N53D”, for which, in assay [2], the concentration for a half-maximal effect (EC50) worked out at 0.0094 µg/mL. Moreover, in assay [1], the other: AUC was 109 AUC.

Consider “TRL345 unmutated common ancestor (UCA) mAb H:Y52aN; L:S30G”, for which the other: AUC in assay [1] turned out to be 124 AUC.

Regarding “TRL345 unmutated common ancestor (UCA) mAb H:A33N; L:N53D”, the other: AUC in assay [1] came out at 180 AUC.

On to “TRL345 unmutated common ancestor (UCA) mAb H:A33N; L:S30G; L:N53D”, for which the other: AUC in assay [1] was 138 AUC.

For “TRL345 unmutated common ancestor (UCA) mAb L:N53D”, the concentration giving a half-maximal response (EC50) in assay [2] was 0.0197 µg/mL. The other: AUC in assay [1] was 90 AUC.

“TRL345 unmutated common ancestor (UCA) mAb L:S30G; L:N53D”: the other: AUC in assay [1] was 107 AUC.

In the case of “TRL345 unmutated common ancestor (UCA) mAb H:A33N; H:Y52aN”, the other: AUC in assay [1] was found to be 140 AUC.

For “TRL345 unmutated common ancestor (UCA) mAb L:S30G”, the EC50 in assay [2] was determined as 0.0127 µg/mL.

“TRL345 unmutated common ancestor (UCA) mAb H:A33N; H:Y52aN; L:N53D”: the other: AUC in assay [1] was 143 AUC.
